Data from the nanobody polyreactivity screen of Harvey et al. (2022).

Experiment: yeast display, Sf9 membrane polyspecificity reagent, FACS + sequencing; frameworks hold sequencing errors
Method in brief: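 A synthetic nanobody library was expressed on Saccharomyces cerevisiae BJ5465 by galactose induction for 36–48 hours. The library was stained for 1 hour at 4 °C with 10% biotinylated, detergent-solubilized Sf9 membrane reagent and enriched with streptavidin microbeads before FACS. Low and high (top ~1%) gates were set on anti-HA fluorescence for expression and streptavidin fluorescence for reagent binding, and each polyreactivity label reflects the gate of origin.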

Sequence | polyreactivity (PSR sort gate)
QVQLVESGGGLVQAGGSLRLSCAASGRIFSPNAMGWYRQAPGKERELVAAITRGGSTNYADSVKGRFTISRDNAKNTVYLQMNSLKPEDTAVYYCAAQLAKTIRGRGYNSWGQGTQVTVSS | low polyreactivity
QVQLVESGGGLVQAGGSLRLSCAASGRIFSPYAMGWYRQAPGKERELVAAINSIGGSTYYADSVKGRFTISRDNAKNTVYLQMNSLKPEDTAVYYCAVKWYRLGLIRWGGYWGQGTQVTVSS | high polyreactivity
QVQLVESGGGLVQAGGSLRLSCAASGRIFSQYDMGWYRPAPGKERELVAAISGGVGTNYADSVKGRFTISRDNAKNTVYLQMNSLKPEDTAVYYCAADYSFERSEYEYWGQGTQVTVSS | low polyreactivity
QVQLVESGGGLVQAGGSLRLSCAASGRIFSRNAMGWYRPAPGKERELVAAISWRGGRTYYADSVKGRFTISRDNAKNTVYLQMNSLKPEDTAVYYCNAVYRLSHYDLDYWGQGTQVTVSS | high polyreactivity
QVQLVESGGGLVQAGGSLRLSCAASGRIFSRNAMGWYRQAPGKERELVAAISRRGGSTSYADSVKGRFTISRDNAMNTVYLQMNSLKPEDTAVYYCAAEDEYYCTRGYWYSRYDYWGQGTQVTVSS | high polyreactivity
QVQLVESGGGLVQAGGSLRLSCAASGRIFSRNTMGWYRQAPGKEREIVAAISQSGGRTYYADSVKGRFTISRDNAKNPVYLQMNSLNPEDTEVYYCNAQFARSSGFNYWGQGTQVTVSS | high polyreactivity
QVQLVESGGGLVQAGGSLRLSCAASGRIFSRYALGWYRQAPGKERELVAGITRSGTTTYYADSVKGRFTISRDNAKNTVYLQMNSLKPEDTAVYYCAAPPIGPNLYDYWGQGTQVTVSS | high polyreactivity
QVQLVESGGGLVQAGGSLRLSCAASGRIFSRYAMGGYRQAPGTERELVAAINNGGSTYYADSVKGRFTISRDNAKNTVYLQMNSLKPEDTAVYYCAKLWWSNFKPVEYWGQGTQVTVSS | low polyreactivity
QVQLVESGGGLVQAGGSLRLSCAASGRIFSRYAMGWYRQAPGKERELVAAISCNGCSTYYADSVKGRFTISRDNAKNTVYLQMNSLKPEDTAVYYCAAYRPGPYAAYGYWGQGTQVTVSS | high polyreactivity
QVQLVESGGGLVQAGGSLRLSCAASGRIFSRYAMGWYRQAPGKERELVAAITRGGSTYYADSVKGRFTISRDNAKNTVYLQMNSLKPEDTAVYYCAKDGYRPDDYGYWGQGTQVTVSS | high polyreactivity
QVQLVESGGGLVQAGGSLRLSCAASGRIFSRYTMGWYRQAPGKERELVAAISSRGGSTYYADSVKGRFTISRDNAKNTVYLQMNSLKREDTAVYYCNTPSYSGSSPYDHWGQGTQVTVSS | high polyreactivity
QVQLVESGGGLVQAGGSLRLSCAASGRIFSRYTMGWYRQAPGKERELVAAISSRGGSTYYADSVKVRFTISRDNAKNTVYLQMNSLKPEDTAVYYCNTPSYSGSSPYDHWGQGTQVTVSS | high polyreactivity
QVQLVESGGGLVQAGGSLRLSCAASGRIFSRYVMGWYRQAPGKERELVAAISWNGGSTYYADSVKGRFRISRDNAKNTVYFQMNSLIPEDTAVYYCAARVRVTGTYYTKYDYWGQGTQVTVSS | high polyreactivity
QVQLVESGGGLVQAGGSLRLSCAASGRIFSSNAMGWYRQAPGKERELVAAITKSGGGTYYADSVKGRFTISRDNAKNTVYLQMNSLKPEDSAVYYCAADHGRPYFSYDYWGQGTQVTVSS | low polyreactivity
QVQLVESGGGLVQAGGSLRLSCAASGRIFSSNAMGWYRQAPGTERELVAAITSGGSTYADSVKGRFTISRDNAKNTVYLQMNSLKPEDTAVYYCATRQGWYGWYGYWGQGTQVTVSS | high polyreactivity
QVQLVESGGGLVQAGGSLRLSCAASGRIFSSYAMGWYRQAPGKERELVAAISRGGSTYYADSVKGRFTISRDNAKNTVYLQMNSLKPEDTAVYYCAAASYSYSERRYYYWGQGTQVTVSS | high polyreactivity

Sequence | polyreactivity (PSR sort gate)
QVQLVESGGGLVQAGGSLRLSCAASGRIFSSYVMGLYRQAPGKERELVAAIRWSGGSTYYADSVKGRFTISRDNAKNTVYLQMNSLKPEDTAVYYCAAEVYRYYATGYGYWGQGTQVTVSS | high polyreactivity
QVQLVESGGGLVQAGGSLRLSCAASGRIFSTNARGWYRQAPGKQRELVAVITGIGGITYYADSVKGRFTISSDNAKNTVYLKMNSLKPEDTAVYYCGADPISEFYWGVKDRYDYWGQGTQVTVSS | low polyreactivity
QVQLVESGGGLVQAGGSLRLSCAASGRIFSVKVMGWYRQAPGKERELVAAITWSVGSTYYADSVKGRFTISRDNPKNTVSLQMNSLKREDTAVYYCAARGPPVYGRVGGYHYWGQGTQVTVSS | low polyreactivity
QVQLVESGGGLVQAGGSLRLSCAASGRIFSVYAMGWYRQAPGTERELVAVITTSGGSTYYADSVKGRFTISRGNAKNTVYLQMNSLKPEDTAVYYCNAEPWSYAIGSYEYWGQGTQVTVSS | high polyreactivity
QVQLVESGGGLVQAGGSLRLSCAASGRIFSVYAMVWYRQAPGKEREFVAAITKGGVGTYYADSVKGRFTISRDNAKNTVYLQMNSLKPEDTAVYYFAARHYYGADRYYSWGQGTQVTVSS | high polyreactivity
QVQLVESGGGLVQAGGSLRLSCAASGRIFSVYARGWYRQAPGKERELVAAITWTGGRTYYADSVKGRFTISRDNAKNTVYLQMNSLKPEDTAVYYCAAQWVRSYQMYWGQGTQVTVSS | high polyreactivity
QVQLVESGGGLVQAGGSLRLSCAASGRIFSWNAMGWYRQAPGKERELVAAISSGGSTIYADSVKGRFTISRDNAKNTVYLQMNSLKPEYTAVYYCATRNGYSGTYGYWGQGTQVTVSS | low polyreactivity
QVQLVESGGGLVQAGGSLRLSCAASGRIFSYAMGWYRQAPGKEREFVAAIRWSGGRTYYADSVKGRFTISRDNAKNTVYLQMNSLKPEDTAVYYCARQGYTLYRTRYRYDYWGQGTQVTVSS | high polyreactivity
QVQLVESGGGLVQAGGSLRLSCAASGRIFSYAMGWYRQAPGKERELVAAITRRGSTYYADSVKGRFTISRDNAKNTVYLQMKSLKPEDTAVYYCAADIYYSRTFYPMGYWGQGTQVTVSS | high polyreactivity
QVQLVESGGGLVQAGGSLRLSCAASGRIFSYNAMGWYRQAPGKERELVAAISYSGGRTYYADSVKGRFTISRDNAKNTVYLQMNSLKPEDTAVYYCAAAYGGSLRYTAGYYWGQGTQVTVSS | high polyreactivity
QVQLVESGGGLVQAGGSLRLSCAASGRIFSYNAMGWYRQAPGKERELVAAITGGGSTNYADSVKGRFTISRDNAKNTVYLQMNSLKAEDTAVYYCAARSWSYKYWGQGTQVTVSS | high polyreactivity
QVQLVESGGGLVQAGGSLRLSCAASGRIFSYNAMGWYRQAPGKERELVAAITSSGSTYADSVKVRFTISRDNAKNTVYLQMNSLKPEDTAVYYCASYYNWSGHYYWGQGTQVTVSS | low polyreactivity
QVQLVESGGGLVQAGGSLRLSCAASGRIFSYNAMGWYRQAPGQERELVASISGRGVITYYADSVKGRFTISRDNAKNTVYLQMNSLKPEDTAVYYCNARYIYTRPRPRNYWGQGTQVTVSS | high polyreactivity
QVQLVESGGGLVQAGGSLRLSCAASGRIFSYYAMGWYRPAPGTERELVAAITRAGGTNYADSVKGRFTISRDNAKNTVYLQMNSVKPEDTAVYYCAADRSRYRYNAPRYAYDYWGQGTQVTVSS | high polyreactivity
QVQLVESGGGLVQAGGSLRLSCAASGRIFSYYAMGWYRQAPGKERELVAAINWSGGSTYYADSVKGRFTISRDNAKNTVYLQMNSLKPEDTAVYYCAVDWTSAYGTYYYTPYDSWGQGTQVTVSS | low polyreactivity
QVQLVESGGGLVQAGGSLRLSCAASGRIFSYYAMGWYRQAPGKERELVAAISRSGGRTYYADSVKGRFTISRDNAKNTVYLQMNSLKPEDTAVYYCAALQRDYSGRYPVSMYYWGQGTQVTVSS | high polyreactivity
